Measurements taken from PMC8230641.

Tests used:
Assay in all cases: native gel or EMSA
[1] = target: ConC-NFL Env trimer (stabilized HIV-1 clade C consensus, native flexible linker variant, with G473T) (HIV-1 clade C consensus)
[2] = target: BG505-NFL Env trimer (native flexible linker variant, C-terminal hexahistidine tag) (HIV-1 (BG505))
[3] = target: BG505-SOSIP Env trimer (BG505 SOSIP.664 sequence, mini-tPA signal sequence, C-terminal hexahistidine tag) (HIV-1 (BG505))
[4] = target: ConC-SOSIP Env trimer (stabilized HIV-1 clade C consensus, ConCv5 KIKO, with G473T) (HIV-1 clade C consensus)
[5] = target: ConC-NtCC Env trimer (stabilized HIV-1 clade C consensus NFL variant with the N-terminal coupling tag CAAC and (G4S)3 linker, with G473T) (HIV-1 clade C consensus)
[6] = target: BG505-NtCC Env trimer (NFL variant with the N-terminal cysteine-containing coupling tag CAAC and (G4S)3 linker) (HIV-1 (BG505))

ConC-NFL Env trimer (stabilized HIV-1 clade C consensus, native flexible linker variant, with G473T)
stoichiometry N [1]: 3

BG505-NFL Env trimer (native flexible linker variant, C-terminal hexahistidine tag) (domain or fragment)
stoichiometry N [2]: 3

BG505-SOSIP Env trimer (BG505 SOSIP.664 sequence, mini-tPA signal sequence, C-terminal hexahistidine tag) (complex)
stoichiometry N [3]: 3

ConC-SOSIP Env trimer (stabilized HIV-1 clade C consensus, ConCv5 KIKO, with G473T) (complex)
stoichiometry N [4]: 3

ConC-NtCC Env trimer (stabilized HIV-1 clade C consensus NFL variant with the N-terminal coupling tag CAAC and (G4S)3 linker, with G473T)
stoichiometry N [5]: 3

BG505-NtCC Env trimer (NFL variant with the N-terminal cysteine-containing coupling tag CAAC and (G4S)3 linker) (domain or fragment)
stoichiometry N [6]: 3
